Data taken from PMC12009402 (Scientific Reports, 2025).

Target: the molecule itself
Assay: AUC

B1: hCCL5-K25S (ligand)
chain: SPYSSDTTPCCFAYIARPLPRAHISEYFYTSGKCSNPAVVFVTRKNRQVCANPEKKWVREYINSLEMS
stoichiometry N: ~200
